Reference: patent US20040265965
Changes are numbered by the printed parent chain. Numbers in names are those of the source. Where “and” joins values, the source holds several entries; their conditions need not be identical. Equal values may be shown once.

B1: Δ2,3-452Flag soluble BACE (S174I, N223A) (protein)
chain: TQHGIRLPLRSGLGGAPLGLRLPRETDEEPEEPGRRGSFVEMVDNLRGKSGQGYYVEMTVGSPPQTLNILVDTGSSNFAVGAAPHPFLHRYYQRQLSSTYRDLRKGVYVPYTQGKWEGELGTDLVSIPHGPNVTVRANIAAITESDKFFINGINWEGILGLAYAEIARPDDSLEPFFDSLVKQTHVPNLFSLQLCGAGFPLAQSEVLASVGGSMIIGGIDHSLYTGSLWYTPIRREWYYEVIIVRVEINGQDLKMDCKEYNYDKSIVDSGTTNLRLPKKVFEAAVKSIKAASSTEKFPDGFWLGEQLVCWQAGTTPWNIFPVISLYLMGEVTNQSFRITILPQQYLRPVEDVATSQDDCYKFAISQSSTGTVMGAVIMEGFYVVFDRARKRIGFAVSACHVHDEFRTAAVEGPFVTLDMEDCGYNIPQTD
B2: 452Flag soluble BACE (membrane truncated BACE with C-terminal Flag epitope tag, fully glycosylated) (protein)
chain: B1 chain with I153S, A202N
B3: Δ3-452Flag soluble BACE (N223A) (protein)
chain: B1 chain with I153S
B4: Δ2,3-452H soluble BACE (S174I, N223A, histidine tag), baculovirus/Sf9 (protein)
chain: TQHGIRLPLRSGLGGAPLGLRLPRETDEEPEEPGRRGSFVEMVDNLRGKSGQGYYVEMTVGSPPQTLNILVDTGSSNFAVGAAPHPFLHRYYQRQLSSTYRDLRKGVYVPYTQGKWEGELGTDLVSIPHGPNVTVRANIAAITESDKFFINGINWEGILGLAYAEIARPDDSLEPFFDSLVKQTHVPNLFSLQLCGAGFPLAQSEVLASVGGSMIIGGIDHSLYTGSLWYTPIRREWYYEVIIVRVEINGQDLKMDCKEYNYDKSIVDSGTTNLRLPKKVFEAAVKSIKAASSTEKFPDGFWLGEQLVCWQAGTTPWNIFPVISLYLMGEVTNQSFRITILPQQYLRPVEDVATSQDDCYKFAISQSSTGTVMGAVIMEGFYVVFDRARKRIGFAVSACHVHDEFRTAAVEGPFVTLDMEDCGYNIPQTDE
B5: 452H,NINL soluble BACE (R42L43P44R45 changed to NINL, histidine tag), baculovirus/Sf9 (protein)
chain: NINLETDEEPEEPGRRGSFVEMVDNLRGKSGQGYYVEMTVGSPPQTLNILVDTGSSNFAVGAAPHPFLHRYYQRQLSSTYRDLRKGVYVPYTQGKWEGELGTDLVSIPHGPNVTVRANIAAITESDKFFINGSNWEGILGLAYAEIARPDDSLEPFFDSLVKQTHVPNLFSLQLCGAGFPLNQSEVLASVGGSMIIGGIDHSLYTGSLWYTPIRREWYYEVIIVRVEINGQDLKMDCKEYNYDKSIVDSGTTNLRLPKKVFEAAVKSIKAASSTEKFPDGFWLGEQLVCWQAGTTPWNIFPVISLYLMGEVTNQSFRITILPQQYLRPVEDVATSQDDCYKFAISQSSTGTVMGAVIMEGFYVVFDRARKRIGFAVSACHVHDEFRTAAVEGPFVTLDMEDCGYNIPQTDE
B6: Δ2,3-452H,NINL soluble BACE (S174I, N223A, R42L43P44R45 changed to NINL, histidine tag), baculovirus/Sf9 (protein)
chain: B5 chain with S133I, N182A

molecular target: MBP-C125Swe (maltose binding protein fused to the C-terminal 125 amino acids of the Swedish variant of APP), P05067
Sequence (P05067 whole entry, looked up, change not shown, the tested form may be a part): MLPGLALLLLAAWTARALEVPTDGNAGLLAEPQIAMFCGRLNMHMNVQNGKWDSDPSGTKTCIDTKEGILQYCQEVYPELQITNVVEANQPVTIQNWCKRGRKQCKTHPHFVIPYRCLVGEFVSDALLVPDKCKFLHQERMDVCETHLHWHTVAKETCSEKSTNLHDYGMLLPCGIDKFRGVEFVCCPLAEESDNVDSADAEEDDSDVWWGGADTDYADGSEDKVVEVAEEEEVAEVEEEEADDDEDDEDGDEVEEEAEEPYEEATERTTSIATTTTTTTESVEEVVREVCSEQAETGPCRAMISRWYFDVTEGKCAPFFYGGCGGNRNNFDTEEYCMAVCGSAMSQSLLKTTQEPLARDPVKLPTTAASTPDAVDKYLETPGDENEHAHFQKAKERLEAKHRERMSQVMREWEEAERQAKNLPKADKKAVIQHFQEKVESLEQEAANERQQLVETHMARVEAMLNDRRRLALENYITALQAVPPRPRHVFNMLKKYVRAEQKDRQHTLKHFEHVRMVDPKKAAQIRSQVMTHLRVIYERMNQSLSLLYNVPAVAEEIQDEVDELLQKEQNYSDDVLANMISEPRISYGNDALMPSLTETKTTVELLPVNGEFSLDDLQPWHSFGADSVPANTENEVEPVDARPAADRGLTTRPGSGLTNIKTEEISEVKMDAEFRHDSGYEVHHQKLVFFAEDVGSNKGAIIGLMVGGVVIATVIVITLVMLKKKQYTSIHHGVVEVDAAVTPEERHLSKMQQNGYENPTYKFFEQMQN

Protein | Activity (pM/h/ng enz) | Cleavage Product (pM) | Substrate Conversion (%) | specific activity | Enzyme activity
B1 | 15800 pM/h/ng enz and 15700 pM/h/ng enz | 109 pM and 108 pM | 5.19% and 5.16% | all three proteins (452 Flag, Δ3-452Flag and Δ2,3-452Flag) had similar specific activities | –
B2 | 14300 pM/h/ng enz and 15200 pM/h/ng enz | 85 pM and 90 pM | 4.05% and 4.30% | all three proteins (452 Flag, Δ3-452Flag and Δ2,3-452Flag) had similar specific activities | –
B3 | 19100 pM/h/ng enz and 20200 pM/h/ng enz | 126 pM and 119 pM | 5.68% and 6.01% | all three proteins (452 Flag, Δ3-452Flag and Δ2,3-452Flag) had similar specific activities | –
B4 | – | – | – | – | good activity was obtained for all samples tested
B5 | – | – | – | – | good activity was obtained for all samples tested
B6 | – | – | – | – | good activity was obtained for all samples tested
